Measured values reported in patent US20180022779A1 (UNIVERSITY OF VIRGINIA PATENT FOUNDATION, published 2018).

Target: T1, mouse eNOS (endogenous, thoracodorsal arteries) (mouse, UniProt P70313 2-1202)
T1 sequence (looked up): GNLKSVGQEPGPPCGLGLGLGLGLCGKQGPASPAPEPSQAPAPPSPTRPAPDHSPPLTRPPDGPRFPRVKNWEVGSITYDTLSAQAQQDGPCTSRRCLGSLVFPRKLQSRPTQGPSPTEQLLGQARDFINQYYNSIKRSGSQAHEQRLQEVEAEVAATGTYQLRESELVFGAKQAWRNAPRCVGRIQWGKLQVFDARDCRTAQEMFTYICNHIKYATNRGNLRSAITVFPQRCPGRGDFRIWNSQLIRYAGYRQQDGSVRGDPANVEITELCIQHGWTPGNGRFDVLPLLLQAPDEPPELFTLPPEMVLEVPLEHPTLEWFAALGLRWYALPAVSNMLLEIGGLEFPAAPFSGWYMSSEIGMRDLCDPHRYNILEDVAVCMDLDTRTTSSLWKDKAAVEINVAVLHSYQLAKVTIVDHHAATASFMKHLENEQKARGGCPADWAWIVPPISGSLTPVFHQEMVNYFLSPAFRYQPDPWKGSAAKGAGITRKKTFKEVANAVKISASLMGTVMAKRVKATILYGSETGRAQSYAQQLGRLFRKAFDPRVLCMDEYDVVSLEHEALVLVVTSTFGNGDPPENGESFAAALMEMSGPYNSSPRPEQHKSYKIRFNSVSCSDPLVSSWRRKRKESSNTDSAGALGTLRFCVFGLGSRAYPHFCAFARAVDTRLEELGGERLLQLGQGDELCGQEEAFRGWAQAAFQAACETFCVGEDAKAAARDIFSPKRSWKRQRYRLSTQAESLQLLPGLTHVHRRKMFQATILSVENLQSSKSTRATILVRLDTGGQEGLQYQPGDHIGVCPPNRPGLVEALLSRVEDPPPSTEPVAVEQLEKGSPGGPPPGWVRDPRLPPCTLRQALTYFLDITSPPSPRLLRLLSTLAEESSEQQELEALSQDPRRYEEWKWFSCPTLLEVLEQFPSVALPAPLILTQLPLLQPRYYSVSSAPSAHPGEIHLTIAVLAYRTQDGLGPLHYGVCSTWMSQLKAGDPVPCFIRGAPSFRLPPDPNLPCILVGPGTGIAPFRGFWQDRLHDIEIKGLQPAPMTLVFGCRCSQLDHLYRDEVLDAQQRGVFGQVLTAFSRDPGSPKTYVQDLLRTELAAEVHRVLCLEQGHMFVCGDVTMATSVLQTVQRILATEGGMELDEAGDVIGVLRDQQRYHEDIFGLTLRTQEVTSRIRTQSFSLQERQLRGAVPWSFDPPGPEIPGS
Assay: cell-based or functional assay

B1: Hb α X peptide (HIV-tat tag linked to LSFPTTKTYF) (peptide)
peptide: YGRKKRRQRRRLSFPTTKTYF
- EC50 of phenylephrine ([PE] producing half of the maximum effect), thoracodorsal arteries treated with Hb α X: 6.8 µM
